pKd: −log10 of the molar value.
Target: CY5 fluorescently labeled CAS9 protein (S. pyogenes) (UniProt Q99ZW2)
Assay: fluorescence titration; 5 nM CY5-CAS9 titrated with peptide, quadratic fit

## CADY (peptide)
  pKd: < 7.00

Reference: patent EP3464323B1
